Assay [1] has as its target HLA-A*11:01. Briefly: IEDB peptide-MHC binding, purified MHC/competitive/fluorescence; filed as Kd, often an IC50 or EC50 that approximates it; ≥ and ≤ were set here for values at or beyond the usual limits of such assays. Particulars: source organism: human gammaherpesvirus 4.
The next assay deals with HLA-B*53:01. The experiment in a line: IEDB peptide-MHC binding, purified MHC/competitive/fluorescence; ≥ and ≤ were set here for values at or beyond the usual limits of such assays. Particulars: source organism: Human herpesvirus 4 type 2.
Another assay concerns the target HLA-A*26:01. Briefly: IEDB peptide-MHC binding, purified MHC/direct/fluorescence; filed as Kd, often an IC50 or EC50 that approximates it; ≥ and ≤ were set here for values at or beyond the usual limits of such assays. The settings on record: source organism: Mycobacterium tuberculosis str. Haarlem.
The next assay has as its target HLA-B*58:01. The description is as above. Particulars: source organism: Mycobacterium tuberculosis.
A further assay addresses HLA-B*46:01. The assay is described as above. The settings on record: source organism: Mycobacterium tuberculosis.
Assay [2] has as its target HLA-A*11:01. The assay is described as above. Particulars: source organism: Mycobacterium tuberculosis.
The next assay addresses HLA-A*02:01. The assay is described as above. Particulars: source organism: Mycobacterium tuberculosis.
The target in the next assay is HLA-B*57:01. The description is as above. Particulars: source organism: Mycobacterium tuberculosis.
The next assay deals with HLA-A*69:01. Described as above. The settings on record: source organism: Mycobacterium tuberculosis.
In another assay the target is HLA-B*15:01. The assay is described as above. The settings on record: source organism: Mycobacterium tuberculosis.
Another assay has as its target HLA-B*07:02. Described as above. The settings on record: source organism: Mycobacterium tuberculosis.
The target of a further assay is HLA-B*48:01. The description is as above. Particulars: source organism: Mycobacterium tuberculosis.
The target of a further assay is HLA-B*40:01. Described as above. Particulars: source organism: Mycobacterium tuberculosis.
A further assay has as its target HLA-A*01:01. The assay is described as above. Particulars: source organism: Mycobacterium tuberculosis.
The target in the next assay is HLA-B*27:05. The assay is described as above. The settings on record: source organism: Mycobacterium tuberculosis.
The next assay has as its target HLA-B*18:01. The assay is described as above. Particulars: source organism: Mycobacterium tuberculosis.
For another assay, the target named is HLA-A*68:02. The assay is described as above. Particulars: source organism: Mycobacterium tuberculosis.
The target in the next assay is HLA-A*31:01. The description is as above. The settings on record: source organism: Mycobacterium tuberculosis.
Another assay addresses HLA-A*02:06. Briefly: IEDB peptide-MHC binding, purified MHC/competitive/fluorescence; filed as Kd, often an IC50 or EC50 that approximates it; ≥ and ≤ were set here for values at or beyond the usual limits of such assays. Particulars: source organism: Mycolicibacterium gilvum PYR-GCK.
The next assay concerns the target HLA-A*26:03. Described as above. Particulars: source organism: Mycolicibacterium gilvum PYR-GCK.
The next assay deals with HLA-B*35:01. The assay is described as above. The settings on record: source organism: Mycolicibacterium gilvum PYR-GCK.
Another assay addresses HLA-B*15:17. Described as above. Particulars: source organism: Mycolicibacterium gilvum PYR-GCK.

A value given as a limit tells only on which side of the number the result lay.

Turning to FSSQLGLFY, the Kd with HLA-A*11:01 [1] turned out to be 0.947 µM. In the assay with HLA-B*53:01, this sequence registered an IC50 of 2.97 µM.
As to ALYLLDGLR, the Kd with HLA-A*26:01 was at least 20 µM; with HLA-B*58:01 it was at least 20 µM; with HLA-B*46:01, at least 20 µM; with HLA-A*11:01 [2], 7.37 µM; with HLA-A*02:01 it was at least 20 µM; with HLA-B*57:01, at least 20 µM. Moreover, the Kd in the assay with HLA-A*69:01, in the assay with HLA-B*15:01, in the assay with HLA-B*07:02, in the assay with HLA-B*48:01, with HLA-B*40:01 and with HLA-A*01:01 was at least 20 µM each time. The Kd in the assay with HLA-B*27:05 is at least 20 µM; with HLA-B*18:01, at least 20 µM; in the assay with HLA-A*68:02 it was at least 20 µM; with HLA-A*31:01, 0.106 µM; with HLA-A*02:06 it was at least 20 µM; with HLA-A*26:03 it was 1 µM. Further, the Kd is 1.21 µM with HLA-B*35:01 and 0.446 µM with HLA-B*15:17.

What is called Kd is the equilibrium constant for the complex coming apart. Low readings indicate a tighter complex, high ones a looser complex. Usually IC50 stands for the concentration at which inhibition is half-maximal. Lower therefore signals inhibition by little substance.

For the origin of these results see the Immune Epitope Database (IEDB).
